Test [1] deals with endogenous Dvl of HEK293 cells. Briefly: cell-based or functional assay.
Test [2] has as its target T1, Myc-tagged mNkd protein, in vitro translated (mouse, UniProt Q99MH6 1-471, labelled with 35S-methionine).
T1 construct: Made with the TNT coupled reticulocyte lysate system in the presence of 35S-methionine; also called Myc-mNkd; 35S-mNkd; not shown: Myc tag
T1 sequence: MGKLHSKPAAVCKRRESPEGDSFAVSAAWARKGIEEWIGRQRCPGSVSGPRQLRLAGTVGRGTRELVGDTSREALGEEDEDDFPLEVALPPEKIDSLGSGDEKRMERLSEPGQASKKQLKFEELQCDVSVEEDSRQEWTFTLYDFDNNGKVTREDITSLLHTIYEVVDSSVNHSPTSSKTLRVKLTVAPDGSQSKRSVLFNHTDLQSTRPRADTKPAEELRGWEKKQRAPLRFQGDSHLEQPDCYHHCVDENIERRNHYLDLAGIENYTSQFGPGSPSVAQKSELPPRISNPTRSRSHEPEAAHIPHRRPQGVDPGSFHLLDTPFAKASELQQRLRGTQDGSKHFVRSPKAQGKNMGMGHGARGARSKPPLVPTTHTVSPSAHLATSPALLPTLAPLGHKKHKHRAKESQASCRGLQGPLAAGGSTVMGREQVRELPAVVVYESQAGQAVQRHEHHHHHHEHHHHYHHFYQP
Briefly: GST pull-down, electrophoresis and autoradiography.

From patent US20020061552A1 (published 2002) come the findings set out here.

For “Xpress tagged mNkd (from UniProt Q99MH6 1-471)”, in test [1], the inhibition of the activation of the LEF-1 luciferase reporter by Wnt in HEK 293 cells amounted to 75%.

B1: GST fusion of the PDZ domain of Drosophila Dvl (other, UniProt P51140 252-324, looked up)
chain: TVSINMEAVNFLGISIVGQSNRGGDGGIYVGSIMKGGAVALDGRIEPGDMILQVNDVNFENMTNDEAVRVLRE
notes: domain: PDZ; also called PDZ domain alone; not shown: glutathione-S-transferase (GST)
Consider B1, for which the binding result in test [2] was “no binding”.
